Conditions in all cases: remark: other sources report otherwise
The target of experiment [1] is T1, SNAP-tagged FUS (Fused in sarcoma), P35637.
T1 chain: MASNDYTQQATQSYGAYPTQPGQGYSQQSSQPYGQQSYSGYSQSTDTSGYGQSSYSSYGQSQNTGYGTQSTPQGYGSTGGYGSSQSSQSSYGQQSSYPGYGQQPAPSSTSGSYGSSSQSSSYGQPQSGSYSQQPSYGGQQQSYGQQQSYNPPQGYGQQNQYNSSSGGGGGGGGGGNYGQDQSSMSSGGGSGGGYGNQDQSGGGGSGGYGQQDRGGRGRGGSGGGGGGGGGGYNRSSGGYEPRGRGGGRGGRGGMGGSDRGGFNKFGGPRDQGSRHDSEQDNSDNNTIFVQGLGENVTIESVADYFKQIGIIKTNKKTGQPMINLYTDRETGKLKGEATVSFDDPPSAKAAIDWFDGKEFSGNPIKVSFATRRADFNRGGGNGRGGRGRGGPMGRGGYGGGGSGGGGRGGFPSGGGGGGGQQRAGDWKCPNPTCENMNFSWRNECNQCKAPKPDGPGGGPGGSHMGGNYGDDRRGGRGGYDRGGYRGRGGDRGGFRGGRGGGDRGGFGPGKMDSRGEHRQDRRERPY
Kind of experiment: dynamic light scattering (DLS); derived count rate and size distributions in sub-saturated solutions; 20 mM Tris.Glu pH 7.4, 100 mM KGlu (with residual KCl from the stock), 25 °C; self-association into clusters.

In experiment [2] the target is T1, SNAP-tagged FUS (Fused in sarcoma), …. Put plainly: nanoparticle tracking analysis (NTA); mesoscale clusters in sub-saturated solutions; 100 mM KGlu and 100 mM KCl, 25 °C, recorded 6 minutes after sample preparation.
In experiment [3] the target is T2, untagged FUS (Fused in sarcoma), P35637.
T2 chain: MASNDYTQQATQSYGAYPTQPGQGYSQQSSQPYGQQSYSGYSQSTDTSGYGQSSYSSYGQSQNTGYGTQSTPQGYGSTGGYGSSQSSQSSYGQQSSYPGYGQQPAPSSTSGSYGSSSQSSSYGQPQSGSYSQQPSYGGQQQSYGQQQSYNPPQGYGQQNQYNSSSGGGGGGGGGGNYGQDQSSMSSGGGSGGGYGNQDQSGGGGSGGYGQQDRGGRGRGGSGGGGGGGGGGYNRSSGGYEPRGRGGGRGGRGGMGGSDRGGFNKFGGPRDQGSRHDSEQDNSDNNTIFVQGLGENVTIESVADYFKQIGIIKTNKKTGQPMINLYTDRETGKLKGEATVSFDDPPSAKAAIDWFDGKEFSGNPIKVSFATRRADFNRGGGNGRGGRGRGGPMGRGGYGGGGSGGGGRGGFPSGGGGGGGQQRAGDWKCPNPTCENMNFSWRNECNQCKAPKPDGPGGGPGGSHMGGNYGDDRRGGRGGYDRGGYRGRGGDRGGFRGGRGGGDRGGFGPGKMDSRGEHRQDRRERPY
The description is as above.

B1: SNAP-tagged FUS (Fused in sarcoma), P35637 1-526 (natural protein)
chain: MASNDYTQQATQSYGAYPTQPGQGYSQQSSQPYGQQSYSGYSQSTDTSGYGQSSYSSYGQSQNTGYGTQSTPQGYGSTGGYGSSQSSQSSYGQQSSYPGYGQQPAPSSTSGSYGSSSQSSSYGQPQSGSYSQQPSYGGQQQSYGQQQSYNPPQGYGQQNQYNSSSGGGGGGGGGGNYGQDQSSMSSGGGSGGGYGNQDQSGGGGSGGYGQQDRGGRGRGGSGGGGGGGGGGYNRSSGGYEPRGRGGGRGGRGGMGGSDRGGFNKFGGPRDQGSRHDSEQDNSDNNTIFVQGLGENVTIESVADYFKQIGIIKTNKKTGQPMINLYTDRETGKLKGEATVSFDDPPSAKAAIDWFDGKEFSGNPIKVSFATRRADFNRGGGNGRGGRGRGGPMGRGGYGGGGSGGGGRGGFPSGGGGGGGQQRAGDWKCPNPTCENMNFSWRNECNQCKAPKPDGPGGGPGGSHMGGNYGDDRRGGRGGYDRGGYRGRGGDRGGFRGGRGGGDRGGFGPGKMDSRGEHRQDRRERPY
modifications: here or on the partner: Alexa 488 (AF488) or Alexa 647 (AF647) label in the smFRET and FCS experiments; unlabelled elsewhere; Alexa 488 (AF488) or Alexa 647 (AF647) label in the smFRET and FCS experiments; unlabelled elsewhere
Take B1: in experiment [1], the derived count rate in 100 mM KGlu relative to 100 mM KCl is less than 3 fold. For the same molecule, the abundance of mesoscale clusters in 100 mM KGlu relative to 100 mM KCl in experiment [2] was 4 fold.

B2: untagged FUS (Fused in sarcoma), P35637 1-526 (natural protein)
chain: MASNDYTQQATQSYGAYPTQPGQGYSQQSSQPYGQQSYSGYSQSTDTSGYGQSSYSSYGQSQNTGYGTQSTPQGYGSTGGYGSSQSSQSSYGQQSSYPGYGQQPAPSSTSGSYGSSSQSSSYGQPQSGSYSQQPSYGGQQQSYGQQQSYNPPQGYGQQNQYNSSSGGGGGGGGGGNYGQDQSSMSSGGGSGGGYGNQDQSGGGGSGGYGQQDRGGRGRGGSGGGGGGGGGGYNRSSGGYEPRGRGGGRGGRGGMGGSDRGGFNKFGGPRDQGSRHDSEQDNSDNNTIFVQGLGENVTIESVADYFKQIGIIKTNKKTGQPMINLYTDRETGKLKGEATVSFDDPPSAKAAIDWFDGKEFSGNPIKVSFATRRADFNRGGGNGRGGRGRGGPMGRGGYGGGGSGGGGRGGFPSGGGGGGGQQRAGDWKCPNPTCENMNFSWRNECNQCKAPKPDGPGGGPGGSHMGGNYGDDRRGGRGGYDRGGYRGRGGDRGGFRGGRGGGDRGGFGPGKMDSRGEHRQDRRERPY
B2: the abundance of mesoscale clusters in 100 mM KGlu relative to 100 mM KCl in experiment [3] came out at 4 fold.

For the origin of these results see paper PMC10543311.
